Experimental data published in patent US20250243278A1 (SHANGHAI HENLIUS BIOTECH, published 2025).

What was measured:
cynomolgus B7H3 = cynomolgus B7H3 (cynomolgus); assay: ELISA on cynomolgus B7H3, OD450
human B7H3 on A498 cells [1] = molecular target: T1, human B7H3 on A498 cells (human, UniProt Q5ZPR3 29-534); assay: flow cytometry, whole cell binding to B7H3+ A498 cells, MFI
T1 construct: Endogenous B7H3 of A498 human kidney carcinoma cells; also called B7H3 positive A498 cells; human B7H3+ A498 cells
T1 sequence: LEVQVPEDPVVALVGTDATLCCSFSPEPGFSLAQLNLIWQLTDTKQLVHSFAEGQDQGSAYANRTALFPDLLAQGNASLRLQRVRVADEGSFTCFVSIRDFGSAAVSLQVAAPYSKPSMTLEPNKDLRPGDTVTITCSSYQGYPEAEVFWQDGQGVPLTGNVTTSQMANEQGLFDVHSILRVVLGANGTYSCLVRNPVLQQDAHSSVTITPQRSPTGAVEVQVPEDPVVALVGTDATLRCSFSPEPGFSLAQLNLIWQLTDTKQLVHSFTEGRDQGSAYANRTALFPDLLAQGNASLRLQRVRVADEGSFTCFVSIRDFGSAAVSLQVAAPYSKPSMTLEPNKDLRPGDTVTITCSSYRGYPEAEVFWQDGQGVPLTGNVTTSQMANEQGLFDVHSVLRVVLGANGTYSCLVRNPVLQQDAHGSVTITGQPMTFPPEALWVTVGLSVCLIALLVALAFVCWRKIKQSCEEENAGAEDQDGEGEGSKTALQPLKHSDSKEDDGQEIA

human B7H3 on A498 cells [2] = molecular target: T1, human B7H3 on A498 cells; assay: flow cytometry, whole cell binding to B7H3+ A498 cells, MFI (FITC)
[3] = molecular target: T2, recombinant human B7H3 extra cellular domain (ECD) protein (human, UniProt Q5ZPR3 29-461); assay: ELISA on human B7H3 (h-B7H3 ECD coated plates), OD450
T2 construct: also called h-B7H3 ECD; h-B7H3; not shown: C-terminal poly-histidine tag or Fc tag
T2 sequence: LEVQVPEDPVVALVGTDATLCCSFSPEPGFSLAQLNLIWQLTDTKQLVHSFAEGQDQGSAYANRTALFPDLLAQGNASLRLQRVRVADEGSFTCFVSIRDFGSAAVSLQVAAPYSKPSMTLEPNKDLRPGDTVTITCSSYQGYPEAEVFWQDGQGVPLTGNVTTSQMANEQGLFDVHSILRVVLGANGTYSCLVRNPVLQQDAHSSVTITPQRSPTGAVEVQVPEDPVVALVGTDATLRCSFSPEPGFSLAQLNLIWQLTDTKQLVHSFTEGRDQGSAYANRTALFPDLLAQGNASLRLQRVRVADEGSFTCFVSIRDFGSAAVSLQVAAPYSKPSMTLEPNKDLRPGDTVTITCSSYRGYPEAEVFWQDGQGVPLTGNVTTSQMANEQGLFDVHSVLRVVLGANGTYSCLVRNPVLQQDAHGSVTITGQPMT

human B7H3 on A498 cells [4] = molecular target: T1, human B7H3 on A498 cells; assay: flow cytometry, whole cell binding to B7H3+ A498 cells, MFI; fit value printed for the flat curve of the negative control
human B7H3 on A498 cells [5] = molecular target: T1, human B7H3 on A498 cells; assay: flow cytometry, whole cell binding to B7H3+ A498 cells, MFI (FITC); remark: listed apart in the source

B1: 14C4 VHH (VHH)
VHH: QVQLVESGGGVVQAGGSLRLSCAASGRTFSSYGMGWFRQAPRKARGFVGAVTSAGSTWYEDSVKGRFTISRDNAKNTVYLQMNSLKPEDTAVYYCAATTIATMPWLMVSSRYAYWGQGTQVTVSS
notes: VHH secreted into SS320 supernatant, as screened by ELISA
For B1, the “EC50 (read off the curve)” value (cynomolgus B7H3) was roughly 0.06 µg/mL.

B2: 19c10-V2 (Fc fusion)
chain: EVQLVESGGGLVQPGGSLRLSCAASGSTFSKYAMGWFRQAPRKARGFVGAVTSAGSTWYADSVKGRFTISRDNSKNTLYLQMNSLRAEDTAVYYCAATTIATMPWLMVSSRYAYWGQGTLVTVSS
notes: Humanized FR1, FR3 and FR4; also called humanized 19c10 clone; not shown: purified by protein A and detected with anti-human IgG, so probably a human Fc
With B2 the EC50 (human B7H3 on A498 cells [1]) was 0.537 nM.

B3: 19c10-V3 (Fc fusion, not shown: a dimerising Fc or GST)
chain: EVQLVESGGGLVQPGGSLRLSCAASGSTFSKYAMGWFRQAPGKARGFVGAVTSAGSTWYADSVKGRFTISRDNSKNTLYLQMNSLRAEDTAVYYCAATTIATMPWLMVSSRYAYWGQGTLVTVSS
notes: FR2 humanized further from 19c10-V2; detected with anti-human IgG; also called humanized 19c10 clone
For B3, the EC50 (human B7H3 on A498 cells [1]) was 1.69 nM and the EC50 (human B7H3 on A498 cells [2]) was 5.52 nM.

B4: 5H8 VHH (VHH)
VHH: QVKLEESGGGQVQAGDSRTLSCVASGRTFSSDSMAWFREAPGKARGFVAVVSRSAGSTWYEDSVKGRFTISRDNAKNTVYLQMNSLKPEDTAVYYCAATDIATMPWLMVSSRYDYWGQGTQVTVSS
notes: VHH secreted into SS320 supernatant from phagemid pADL-23c, as screened by ELISA
For B4, the “EC50 (read off the curve)” value [3] was roughly 0.08 µg/mL.

B5: Reference Ab 4 (antibody, V domains shown)
VH: QVQLQQPGAELVKPGASVKLSCKASGYSFTSYWMHWVKQRPGQGLEWIGMIHPNSGSNNYNEKFKSKATLTVDKSSNTAYMQLSSLTSEDSAVYYCARRLGLHFDYWGQGTTLTVSS
VL: DIVMTQSQKFMSTPVGDRVSITCKASQNVGTAVAWYQQKPGQSPKLLIYSASNRYTGVPDRFTGSGSGTDFTLTISNMQSEDLADYFCQQYSSYPYTFGGGTKLEIK
In the case of B5, the EC50 (human B7H3 on A498 cells [4]) is reported as 40.3 nM.

B6: Reference Ab 2 (an h1702 analog) (antibody, V domains shown)
VH: QVQLQQPGAELVKPGASVKLSCKASGYTFTSYWMHWVKQRPGQGLEWIGMIHPDSGTTNYNEKFRSKATLTVDKSSSTAYMQLSSLTSEDSAVYYCAVYYGSTYWYFDVWGTGTTVTVSS
VL: DVVMTQTPLSLPVSLGDQAYISCRSSQSLVHINGNTYLHWYRQKPGQSPKLLIYKVSNRFSGVPDRFSGSGSGTDFTLKISRVEAEDLGVYFCSQSTHFPFTFGSGTKLEIK
B6 was tested, and the EC50 (human B7H3 on A498 cells [5]) was 0.85 nM.
